Assay results taken from patent US20230002798A1, “PROCESS FOR THE PREPARATION OF A FERMENTABLE SUGAR COMPOSITION AND THE FERMENTATION THEREOF” (WeissBioTech GmbH, priority 2019, published 2023).

B1: Gth: oligo-1,6-glucosidase of Parageobacillus thermoglucosidasius, amino acid sequence SEQ ID NO:2, expressed in Bacillus subtilis (protein, listed as Parageobacillus thermoglucosidasius)
chain: MERVWWKEAVVYQIYPRSFYDSNGDGIGDIRGIIAKLDYLKELGVDVVWLSPVYKSPNDDNGYDISDYRDIMDEFGTMADWKTMLEEMHKRGIKLVMDLVVNHTSDEHPWFIESRKSKDNPYRDYYIWRPGKNGKEPNNWESVFSGSAWEYDEMTGEYYLHLFSKKQPDLNWENPKVRREVYEMMKFWLDKGVDGFRMDVINMISKVPELPDGEPQSGKKYASGSRYYMNGPRVHEFLQEMNREVLSKYDIMTVGETPGVTPKEGILYTDPSRRELNMVFQFEHMDLDSGPGGKWDIRPWSLADLKKTMTKWQKELEGKGWNSLYLNNHDQPRAVSRFGDDGKYRVESAKMLATFLHMMQGTPYIYQGEEIGMTNVRFPSIEDYRDIETLNMYKERVEEYGEDPQEVMEKIYYKGRDNARTPMQWDDSENAGFTAGTPWIPVNPNYKEINVKAALEDPNSVFHYYKKLIQLRKQHDIIVYGTYDLILEDDPYIYAYTRTLGNEQLIVITNFSEKTPVFRLPDHIIYKTKELLISNYDVDEAEELKEIRLRPWEARVYKIRLP
modifications: WP_042386239.1 alpha-glucosidase
B2: Agl1: oligo-1,6-glucosidase of Bifidobacterium breve UCC2003, amino acid sequence SEQ ID NO:1, expressed in Bacillus subtilis (protein)
chain: MMTTFNRAIIPDAIRTNGATPNPWWSNAVVYQIYPRSFQDTNGDGFGDLKGITSRLDYLADLGVDVLWLSPVYKSPQDDNGYDISDYQDIDPLFGTLDDMDELLAEAHKRGLKVVMDLVVNHTSDEHAWFEASKNKDDEHADWYWWRPARPGTTPGEPGSEPNQWGSYFGGSAWEYCPERGEYYLHQFSKKQPDLNWENPAVRRAVYDMMNWWLDRGIDGFRMDVITLISKRTDANGRLPGEYGSELDDLPVGEEGYSNPNPFCADGPRQDEFLKEMRREVFAGREGFLTVGEAPGITPVRNEHITNPANGELDMLFLFDHVDFDCDGVKWKPLPLDLPGFKRIMAGYQTAVENVGWASLFTGNHDQPRVVSRWGDDSSEESRVRSAKALGLMLHMHRGTPYVYQGEELGMTNAHFTSLDQYRDLESLNAYRQRVEEAKVQSPESMLAGIAARGRDNSRTPMQWDGSAYAGFTAPDAATEPWISVNPNHAEINAAGEFDDPDSVYAFYKKLIALRHNSSIVAAGEWQLIDADDAHVYAFTRTLGNERLLVVVNLSGRTVDLPRESTELIAGGVTEPDIILSTYDAPHTVVSLANRELDPWEAAAVQL
modifications: Bifidobacterium breve UCC2003; ACM89182.1 alpha-glucosidase 1

Tests used:
[1] = SSF of commercial liquefied starch, 72 h (Example 3); design: species or system Yeast (Deltaferm® AL-18); details: SSF 72 h, commercial liquefied starch 300 g/L, glucoamylase 200 g/t, enzyme 187.5 kU per ton
Protocol: (§1) Quantification of ethanol yield Ethanol was quantified via HPLC. Samples were taken at the end of the SSF or during SSF at set time points. Samples were centrifuged for 1 min at 17,000 xg and sterile filtered (0.2 μm). The samples were frozen at −80° C. prior to measurements. Ethanol was determined with an Aminex 87C column (Bio-Rad Laboratories, Inc., US) on a Shimadzu HPLC system.
(§2) Residual sugars were quantified via HPLC. Samples were taken at the end of the SSF or during SSF at set time points. Samples were centrifuged for 1 min at 17 000 xg and sterile filtered (0.2 μm). The samples were frozen at −80° C. prior to measurements. Residual sugars were determined with a Zorbax NH2 column (Agilent Technologies, Inc., US) on an Agilent 1200 HPLC system.
Liquefied starch was analysed prior to use on a Zorbax NH2 column (Agilent Technologies, Inc., US) for analysis of mono-, di- and trisaccharide type and content, and on an Aminex 42A column (Bio-Rad Laboratories, Inc., US) for analysis of degree of polymerisation (DP) detecting DP1-DP6 content. IPLC was performed on a Shimadzu IPLC system.
For SSF, the enzyme product was used as crude Bacillus extract. Acidified liquefied starch (pH 2.0) from a commercial plant, containing no detectable amounts of panose, isomaltose, isomaltotriose or trehalose, was brought to pH 4.8. SSF medium components (5 g/L yeast extract, 5 g/L peptone, 1 g/L K2HIPO4, 0.5 g/L Mg2SO4 in 50 mM citrate buffer, pH 4.8) were added to liquefied starch (300 g/L). The SSF medium containing starch was sterile filtered (0.2 μm). Yeast (Deltaferm® AL-18, WeissBioTech GmbH, Ascheberg, Germany) was grown in YINaC medium (50 g/L dextrose, 5 g/L yeast extract, 5 g/L peptone, 1 g/L K2HPO4, 0.5 g/L Mg2SO4*7H2O, 2 g/L NH4Cl in 50 mM sodium citrate, pH 4.8) for 2 days at 37° C. and harvested by centrifugation for 15 min at 5100 rpm and 8° C. Pelleted yeast was added to the SSF at a final concentration of 6 g/L. Glucoamylase (Deltazym® GA L-E10, WeissBioTech GmbH, Ascheberg, Germany) was added at 200 g per ton of dry starch equivalent. The enzyme product Agl1 or Gth was added to a final concentration of 187.5 kU per ton of dry starch equivalent. As control, no oligo-1,6-glucosidase/enzyme product was added. The SSF was performed at 30° C. without stirring or shaking for 72 h.

[2] = SSF of maltodextrins with added maltotriose, 24 h (Example 1); design: species or system Yeast (Deltaferm® AL-18); details: SSF 24 h, maltodextrin + 20 g/L maltotriose, enzyme 187.5 kU per ton
Protocol: as §1
(§3) For simultaneous saccharification and fermentation (abbreviated SSF), the oligo-1,6-glucosidases—either Agl1 or Gth—were used as crude Bacillus extract. Glucidex® Maltodextrin 12 (Roquette, FR) was dissolved in SSF-medium (5 g/L yeast extract, 5 g/L peptone, 1 g/L K2HIPO4, 0.5 g/L Mg2SO4 in 50 mM citrate buffer, pH 4.8) at 300 g/L. Panose, isomaltose, isomaltotriose, maltose, maltotriose, or trehalose was added at 20 g/L. As a positive control, 20 g/L glucose was added instead of the respective sugar. The SSF medium containing starch hydrolysate (maltodextrins) and sugars was sterile filtered (0.2 μm). Yeast (Deltaferm® AL-18, WeissBioTech GmbH, Ascheberg, Germany) was grown in YINaC medium (50 g/L dextrose, 5 g/L yeast extract, 5 g/L peptone, 1 g/L K2HPO4, 0.5 g/L Mg2SO4*7H2O, 2 g/L NH4Cl in 50 mM sodium citrate, pH 4.8) for 2 days at 37° C. and harvested by centrifugation for 15 min at 5100 rpm and 8° C. Pelleted yeast was added to the SSF-medium at a final concentration of 6 g/L. Glucoamylase (Deltazym® GA L-E5, WeissBioTech GmbH, Ascheberg, Germany) was added at 40 g per ton of dry starch equivalent. The enzyme product Agl1 or Gth was added up to a final concentration of 187.5 kU per ton of dry starch equivalent. For the SSF with trehalose, Agl1 or Gth was added at 937.5 kU per ton of dry starch equivalent. As a negative control, an SSF as described above was run without oligo-1,6-glucosidase/enzyme product. The SSF was performed at 30° C. without stirring or shaking for 24 h.

[3] = Storage stability (50% v/v glycerol, 4° C.); format: physicochemical; details: at 4° C., extrapolated from 12 months data
Protocol: Storage stability was determined by measuring the activity of the enzymes stored in a glass container in a stabilizing formulation (50% v/v glycerol) at 4° C. over a time period of 12 months. […] “Without a loss in activity” is defined as an extrapolated activity of greater than 95% of the initial activity.

[4] = SSF of maltodextrins with added panose, 24 h (Example 1); design: species or system Yeast (Deltaferm® AL-18); details: SSF 24 h; for panose concentration reduced by: 20 g/L panose added; for ethanol concentration increase by % compared to the negative control / ethanol concentration increase compared to the negative control: 300 g/L maltodextrin + 20 g/L panose, enzyme 187.5 kU per ton; for ethanol concentration increase compared to the negative control: glucoamylase 40 g/t, 30° C., pH 4.8
Protocol: as §1, §2, §3

[5] = SSF of maltodextrins with added isomaltotriose, 24 h (Example 1); design: species or system Yeast (Deltaferm® AL-18); details: SSF 24 h, maltodextrin + 20 g/L isomaltotriose, enzyme 187.5 kU per ton
Protocol: as §1, §3

| Molecule | ethanol concentration increase by % compared to the negative control [1] [%] | ethanol concentration increase compared to the negative control [1] | ethanol concentration increase by % compared to the negative control [2] [%] | ethanol concentration increase compared to the negative control [2] | storage stability without a loss in activity [3] | panose concentration reduced by [4] [%] | ethanol concentration increase by % compared to the negative control [4] [%] | ethanol concentration increase compared to the negative control [4] | ethanol concentration increase by % compared to the negative control [5] [%] | ethanol concentration increase compared to the negative control [5] |
| --- | --- | --- | --- | --- | --- | --- | --- | --- | --- | --- |
| B1 | 4 | 0.47 percentage points (v/v) | 0 | 0.00 percentage points (v/v) | 18-24 month | 96 | 85 | 0.94 percentage points (v/v) | 48 | 0.57 percentage points (v/v) |
| B2 | 2 | 0.30 percentage points (v/v) | 1 | 0.03 percentage points (v/v) | 18-24 month | 96 | 92 | 1.01 percentage points (v/v) | 40 | 0.48 percentage points (v/v) |
